The supplement of paper PMC9112550, “Optimization of the antimicrobial peptide Bac7 by deep mutational scanning” (BMC Biology, 2022)

System: Escherichia coli TOP10
Experiment: shrunken log2 fold change of peptide-encoding DNA abundance (4.5 h post-induction vs induction); higher = less antimicrobial activity (less host growth inhibition)
Details: time post-induction: 4.5 h; library: site-saturation at positions 5, 18, 19, 20
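Also: peptides expressed intracellularly from a pBAD plasmid library in pooled LB shake-flask culture, induced with 0.3% L-arabinose, DNA abundance read by NGS, three biological replicates, DESeq2 with apeglm shrinkage.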

Sequence	shrunken log2 fold change
RRIRTRPPRLPRPRPRPPTIPRP	-0.248
RRIRTRPPRLPRPRPRPPVFPRP	0.346
RRIRTRPPRLPRPRPRPPVVPRP	-0.0715
RRIRTRPPRLPRPRPRPPYQPRP	0.0802
RRIRTRPPRLPRPRPRPPYVPRP	-0.212
RRIRTRPPRLPRPRPRPQCNPRP	-0.0399
RRIRTRPPRLPRPRPRPQCRPRP	-0.259
RRIRTRPPRLPRPRPRPQDLPRP	-0.0848
RRIRTRPPRLPRPRPRPQELPRP	0.0724
RRIRTRPPRLPRPRPRPQFRPRP	-0.132
RRIRTRPPRLPRPRPRPQHFPRP	-0.0212
RRIRTRPPRLPRPRPRPQHWPRP	0.08
RRIRTRPPRLPRPRPRPQIEPRP	-0.107
RRIRTRPPRLPRPRPRPQIPPRP	-0.235
RRIRTRPPRLPRPRPRPQKHPRP	-0.459
RRIRTRPPRLPRPRPRPQKIPRP	-0.123
RRIRTRPPRLPRPRPRPQNRPRP	-0.199
RRIRTRPPRLPRPRPRPQPEPRP	0.0514
RRIRTRPPRLPRPRPRPQPPPRP	0.357
RRIRTRPPRLPRPRPRPQREPRP	-0.0725
RRIRTRPPRLPRPRPRPQTDPRP	-0.466
RRIRTRPPRLPRPRPRPQVQPRP	-0.0311
RRIRTRPPRLPRPRPRPQVYPRP	-0.168
RRIRTRPPRLPRPRPRPQYCPRP	-0.0968
RRIRTRPPRLPRPRPRPQYKPRP	-1.04

Sequence	shrunken log2 fold change
RRIRTRPPRLPRPRPRPQYRPRP	-0.0697
RRIRTRPPRLPRPRPRPRACPRP	0.608
RRIRTRPPRLPRPRPRPRAPPRP	0.511
RRIRTRPPRLPRPRPRPRAYPRP	-0.339
RRIRTRPPRLPRPRPRPRCDPRP	0.13
RRIRTRPPRLPRPRPRPRCLPRP	-0.0645
RRIRTRPPRLPRPRPRPREGPRP	0.41
RRIRTRPPRLPRPRPRPREHPRP	0.327
RRIRTRPPRLPRPRPRPRFMPRP	-0.265
RRIRTRPPRLPRPRPRPRHDPRP	0.0144
RRIRTRPPRLPRPRPRPRHPPRP	0.225
RRIRTRPPRLPRPRPRPRIKPRP	-0.208
RRIRTRPPRLPRPRPRPRITPRP	-0.474
RRIRTRPPRLPRPRPRPRKMPRP	-0.107
RRIRTRPPRLPRPRPRPRKVPRP	-0.295
RRIRTRPPRLPRPRPRPRLRPRP	0.403
RRIRTRPPRLPRPRPRPRPDPRP	1.44
RRIRTRPPRLPRPRPRPRPGPRP	0.621
RRIRTRPPRLPRPRPRPRQDPRP	-0.144
RRIRTRPPRLPRPRPRPRQKPRP	0.0911
RRIRTRPPRLPRPRPRPRRIPRP	-0.16
RRIRTRPPRLPRPRPRPRRRPRP	0.411
RRIRTRPPRLPRPRPRPRTTPRP	0.419
RRIRTRPPRLPRPRPRPRTWPRP	-0.0887
RRIRTRPPRLPRPRPRPRVWPRP	0.382

Sequence	shrunken log2 fold change
RRIRTRPPRLPRPRPRPRWTPRP	-0.0339
RRIRTRPPRLPRPRPRPRWWPRP	0.533
RRIRTRPPRLPRPRPRPSAGPRP	-0.0241
RRIRTRPPRLPRPRPRPSAMPRP	-0.0978
RRIRTRPPRLPRPRPRPSAWPRP	0.0388
RRIRTRPPRLPRPRPRPSCSPRP	-0.16
RRIRTRPPRLPRPRPRPSDKPRP	-0.0752
RRIRTRPPRLPRPRPRPSELPRP	-0.255
RRIRTRPPRLPRPRPRPSEPPRP	-0.295
RRIRTRPPRLPRPRPRPSERPRP	-0.186
RRIRTRPPRLPRPRPRPSFSPRP	-0.262
RRIRTRPPRLPRPRPRPSGEPRP	2.88
RRIRTRPPRLPRPRPRPSGFPRP	0.131
RRIRTRPPRLPRPRPRPSGYPRP	-0.256
RRIRTRPPRLPRPRPRPSHDPRP	-0.459
RRIRTRPPRLPRPRPRPSHVPRP	2.39
RRIRTRPPRLPRPRPRPSISPRP	-0.362
RRIRTRPPRLPRPRPRPSIVPRP	-0.427
RRIRTRPPRLPRPRPRPSKDPRP	-0.61
RRIRTRPPRLPRPRPRPSKRPRP	-0.325
RRIRTRPPRLPRPRPRPSLIPRP	-0.424
RRIRTRPPRLPRPRPRPSMLPRP	-0.204
RRIRTRPPRLPRPRPRPSPSPRP	-0.0444
RRIRTRPPRLPRPRPRPSQEPRP	-0.184
RRIRTRPPRLPRPRPRPSREPRP	0.427

Sequence	shrunken log2 fold change
RRIRTRPPRLPRPRPRPSRKPRP	0.0182
RRIRTRPPRLPRPRPRPSRVPRP	0.526
RRIRTRPPRLPRPRPRPSSKPRP	-0.201
RRIRTRPPRLPRPRPRPSVAPRP	0.00143
RRIRTRPPRLPRPRPRPSVLPRP	-0.239
RRIRTRPPRLPRPRPRPSWCPRP	-0.322
RRIRTRPPRLPRPRPRPTAEPRP	0.458
RRIRTRPPRLPRPRPRPTCCPRP	-0.0411
RRIRTRPPRLPRPRPRPTEAPRP	0.0502
RRIRTRPPRLPRPRPRPTETPRP	0.171
RRIRTRPPRLPRPRPRPTGKPRP	-0.108
RRIRTRPPRLPRPRPRPTHKPRP	-0.0156
RRIRTRPPRLPRPRPRPTHYPRP	0.282
RRIRTRPPRLPRPRPRPTIAPRP	-0.372
RRIRTRPPRLPRPRPRPTKCPRP	-0.173
RRIRTRPPRLPRPRPRPTKSPRP	0.0353
RRIRTRPPRLPRPRPRPTLRPRP	-0.023
RRIRTRPPRLPRPRPRPTMEPRP	-0.489
RRIRTRPPRLPRPRPRPTMKPRP	-0.334
RRIRTRPPRLPRPRPRPTMVPRP	-0.0941
RRIRTRPPRLPRPRPRPTNGPRP	-0.0801
RRIRTRPPRLPRPRPRPTQRPRP	0.11
RRIRTRPPRLPRPRPRPTSGPRP	0.0562
RRIRTRPPRLPRPRPRPTTKPRP	-0.0673
RRIRTRPPRLPRPRPRPTYRPRP	-0.0768

Sequence	shrunken log2 fold change
RRIRTRPPRLPRPRPRPVCKPRP	-0.0432
RRIRTRPPRLPRPRPRPVEVPRP	-0.0848
RRIRTRPPRLPRPRPRPVFAPRP	0.214
RRIRTRPPRLPRPRPRPVFCPRP	-0.139
RRIRTRPPRLPRPRPRPVHIPRP	-0.149
RRIRTRPPRLPRPRPRPVILPRP	-0.994
RRIRTRPPRLPRPRPRPVLTPRP	1.21
RRIRTRPPRLPRPRPRPVMWPRP	-0.11
RRIRTRPPRLPRPRPRPVPPPRP	0.396
RRIRTRPPRLPRPRPRPVQHPRP	-0.217
RRIRTRPPRLPRPRPRPVQRPRP	0.132
RRIRTRPPRLPRPRPRPVQVPRP	0.0995
RRIRTRPPRLPRPRPRPVRWPRP	0.774
RRIRTRPPRLPRPRPRPVSHPRP	-0.265
RRIRTRPPRLPRPRPRPVSKPRP	-0.096
RRIRTRPPRLPRPRPRPVTVPRP	0.0698
RRIRTRPPRLPRPRPRPVVMPRP	-0.0861
RRIRTRPPRLPRPRPRPVVYPRP	-0.418
RRIRTRPPRLPRPRPRPVWIPRP	-0.651
RRIRTRPPRLPRPRPRPVWWPRP	0.423
RRIRTRPPRLPRPRPRPVYVPRP	-0.62
RRIRTRPPRLPRPRPRPWCLPRP	-0.596
RRIRTRPPRLPRPRPRPWFDPRP	-0.247
RRIRTRPPRLPRPRPRPWFEPRP	0.647
RRIRTRPPRLPRPRPRPWGAPRP	0.211

Sequence	shrunken log2 fold change
RRIRTRPPRLPRPRPRPWGPPRP	-0.0265
RRIRTRPPRLPRPRPRPWIHPRP	-0.636
RRIRTRPPRLPRPRPRPWIMPRP	-0.621
RRIRTRPPRLPRPRPRPWKNPRP	-0.0599
RRIRTRPPRLPRPRPRPWKPPRP	0.0143
RRIRTRPPRLPRPRPRPWMGPRP	-0.116
RRIRTRPPRLPRPRPRPWMLPRP	-0.0281
RRIRTRPPRLPRPRPRPWMYPRP	-0.22
RRIRTRPPRLPRPRPRPWNMPRP	-0.276
RRIRTRPPRLPRPRPRPWTCPRP	-0.0449
RRIRTRPPRLPRPRPRPWVNPRP	-0.208
RRIRTRPPRLPRPRPRPWVYPRP	-0.294
RRIRTRPPRLPRPRPRPWWNPRP	-0.233
RRIRTRPPRLPRPRPRPWWPPRP	-0.0247
RRIRTRPPRLPRPRPRPWYGPRP	-0.379
RRIRTRPPRLPRPRPRPWYHPRP	-0.464
RRIRTRPPRLPRPRPRPWYWPRP	-0.0177
RRIRTRPPRLPRPRPRPYALPRP	-0.686
RRIRTRPPRLPRPRPRPYATPRP	-0.178
RRIRTRPPRLPRPRPRPYAYPRP	-0.0309
RRIRTRPPRLPRPRPRPYCCPRP	-0.364
RRIRTRPPRLPRPRPRPYDAPRP	0.0888
RRIRTRPPRLPRPRPRPYEEPRP	-0.573
RRIRTRPPRLPRPRPRPYETPRP	-0.00043
RRIRTRPPRLPRPRPRPYFGPRP	-0.589
